Consider two substances from paper PMC2156119.

Where two headings read alike, the source gives them in different places.

The term Kd denotes a measure of binding affinity in units of concentration.

In test [1] the target is tubulin as used by Curmi et al. 1997. Briefly: plasmon resonance measurement. The note with it: pH 6.5; cited from earlier work.
For test [2], the target named is Op18-Δ5-9-F (human). Briefly: pull-down.
For test [3], the target named is Op18-Δ5-9-F (human). Kind of test: pull-down. The source holds these as a separate data set.

For “stathmin/Op18 as used by Curmi et al. 1997”, the Kd in test [1] is 500 nM.

In test [2], “tubulin heterodimer (bovine tubulin) (from UniProt Q6B856 1-445) (complex)” gave a Kd1 (first tubulin heterodimer) of 6.5 µM and a Kd2 (second tubulin heterodimer) of 0.91 µM. In test [3], the Free [tubulin] at half saturation of Op18 stood at 7.1 µM, the Kd1 (first tubulin heterodimer) stood at 74 µM, the Kd2 (second tubulin heterodimer) came out at 0.98 µM and the stoichiometry N (mol tubulin per mol) stood at 2.1.
